B1: wt mouse RtcB-Flag (pCMV3-mRTCB-Flag) [mouse] / PTP1B-C215S (trapping mutant; pcDNA3.1/Zeo-PTP1B [not stated] (parent)
chain 1: MSRNYNDELQFLDKINKNCWRIKKGFVPNMQVEGVFYVNDALEKLMFEELRNACRGGGVGGFLPAMKQIGNVAALPGIVHRSIGLPDVHSGYGFAIGNMAAFDMNDPEAVVSPGGVGFDINCGVRLLRTNLDESDVQPVKEQLAQAMFDHIPVGVGSKGVIPMNAKDLEEALEMGVDWSLREGYAWAEDKEHCEEYGRMLQADPNKVSPRAKKRGLPQLGTLGAGNHYAEIQVVDEIFNEYAAKKMGIDHKGQVCVMIHSGSRGLGHQVATDALVAMEKAMKRDKIIVNDRQLACARIASPEGQDYLKGMAAAGNYAWVNRSSMTFLTRQAFAKVFNTTPDDLDLHVIYDVSHNIAKVEQHVVDGKERTLLVHRKGSTRAFPPHHPLIAVDYQLTGQPVLIGGTMGTCSYVLTGTEQGMTETFGTTCHGAGRALSRAKSRRNLDFQDVLDKLADMGIAIRVASPKLVMEEAPESYKNVTDVVNTCHDAGISKKAIKLRPIAVIKG
chain 2: MEMEKEFEQIDKSGSWAAIYQDIRHEASDFPCRVAKLPKNKNRNRYRDVSPFDHSRIKLHQEDNDYINASLIKMEEAQRSYILTQGPLPNTCGHFWEMVWEQKSRGVVMLNRVMEKGSLKCAQYWPQKEEKEMIFEDTNLKLTLISEDIKSYYTVRQLELENLTTQETREILHFHYTTWPDFGVPESPASFLNFLFKVRESGSLSPEHGPVVVHSSAGIGRSGTFCLADTCLLLMDKRKDPSSVDIKKVLLEMRKFRMGLIQTADQLRFSYLAVIEGAKFIMGDSSVQDQWKELSHEDLEPPPEHIPPPPRPPKRILEPHNGKCREFFPNHQWVKEETQEDKDCPIKEEKGSPLNAAPYGIESMSQDTEVRSRVVGGSLRGAQAASPAKGEPSLPEKDEDHALSYWKPFLVNMCVATVLTAGAYLCYRFLFNSNT

Variants of: B1
Test: co-immunoprecipitation (IP: PTP1B, immunoblot RtcB), band quantification
Conditions: with PTP1B-C215S (trapping mutant; pcDNA3.1/Zeo-PTP1B C215S); HEK cells, 1 μg RtcB-Flag plasmid and 1 μg PTP1B C215S plasmid; n = 3; parent: 100; read off a plot

| Variant | percent of parent [% WT] |
| --- | --- |
| chain 1 Y306F Y316F Y475F | 38 |
| chain 1 Y306F | 100 |
| chain 1 Y316F | 75 |
| chain 1 Y306F Y316F | 37 |
| chain 1 Y475F | 55 |
